Here are results for one molecule from patent US20080241166A1.

The target in the assay is hen egg lysozyme (hen) (UniProt P00698). The assay is described as follows: ELISA on coated HEL (3 mg/ml); detection via the myc tag with 9e10 and anti mouse IgG-HRP. On the technique in general: In an ELISA, binding on a coated surface is turned into a signal by an enzyme label.
hen egg lysozyme (hen), sequence (P00698 19-147): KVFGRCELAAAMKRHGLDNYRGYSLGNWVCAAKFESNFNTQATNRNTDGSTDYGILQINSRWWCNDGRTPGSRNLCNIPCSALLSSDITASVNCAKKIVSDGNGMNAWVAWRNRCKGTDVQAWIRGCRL

B1: VHCκ chain expressed alone (TAR2-5-Cκ) (protein, not shown: small tags and cut ends)
chain: EVQLLESGGGLVQPGGSLRLSCAASGFTFDLYNMFWVRQAPGKGLEWVSFISQTGRLTWYADSVKGRFTISRDNSKNTLYLQMNSLRAEDTAVYYCAKTLEDFDYWGQGTLVTVSS
The molecule B1 had an ELISA signal (background) of 0.069.
